Reference: patent US20030157644A1 (MOUNT SINAI SCHOOL OF MEDICINE OF THE CITY UNIVERSITY OF …, published 2003)
Ends that are not written are not given here.

Columns and labels:
[1] = target: T1, phospholipase C-β2 (human, UniProt Q00722 1-1185, Cascade Blue acetyl azide label on amines, labelling ratio 1:1 (FRET experiment only)); assay: fluorescence resonance energy transfer, DABMI-peptide and Cascade Blue-PLC-β2, with and without phospholipids
T1 construct: Recombinant; Cytosolic fraction of baculovirus-infected High 5 cells in the activity assays; purified from Sf9 cells and labelled with Cascade Blue for FRET; also called PLC-β2; CB-PLC-β2
Protocol: The reaction was allowed to proceed for 30 minutes at room temperature before quenching with 5 mM DTT. The final labeling ratios, as determined by absorption, were 1:1 for CB-PLC-β2 and 0.8 for the two DABMI-peptides. Fluorescence spectra were taken on an ISS-PC7 (ISS Champaign, IL) photon counting spectrofluorometer using a 3×3 mm cuvette and exciting at 380 nm and scanning from 400-560 nm.
The stimulation by maximal concentration of peptide was non-additive with Gβγ stimulation (FIG. 5A, upper panel).

[2] = target: T1, phospholipase C-β2; assay: cell-based or functional assay

T1 sequence (Q00722 other isoform, or with tags, fused parts or gaps limits assumed): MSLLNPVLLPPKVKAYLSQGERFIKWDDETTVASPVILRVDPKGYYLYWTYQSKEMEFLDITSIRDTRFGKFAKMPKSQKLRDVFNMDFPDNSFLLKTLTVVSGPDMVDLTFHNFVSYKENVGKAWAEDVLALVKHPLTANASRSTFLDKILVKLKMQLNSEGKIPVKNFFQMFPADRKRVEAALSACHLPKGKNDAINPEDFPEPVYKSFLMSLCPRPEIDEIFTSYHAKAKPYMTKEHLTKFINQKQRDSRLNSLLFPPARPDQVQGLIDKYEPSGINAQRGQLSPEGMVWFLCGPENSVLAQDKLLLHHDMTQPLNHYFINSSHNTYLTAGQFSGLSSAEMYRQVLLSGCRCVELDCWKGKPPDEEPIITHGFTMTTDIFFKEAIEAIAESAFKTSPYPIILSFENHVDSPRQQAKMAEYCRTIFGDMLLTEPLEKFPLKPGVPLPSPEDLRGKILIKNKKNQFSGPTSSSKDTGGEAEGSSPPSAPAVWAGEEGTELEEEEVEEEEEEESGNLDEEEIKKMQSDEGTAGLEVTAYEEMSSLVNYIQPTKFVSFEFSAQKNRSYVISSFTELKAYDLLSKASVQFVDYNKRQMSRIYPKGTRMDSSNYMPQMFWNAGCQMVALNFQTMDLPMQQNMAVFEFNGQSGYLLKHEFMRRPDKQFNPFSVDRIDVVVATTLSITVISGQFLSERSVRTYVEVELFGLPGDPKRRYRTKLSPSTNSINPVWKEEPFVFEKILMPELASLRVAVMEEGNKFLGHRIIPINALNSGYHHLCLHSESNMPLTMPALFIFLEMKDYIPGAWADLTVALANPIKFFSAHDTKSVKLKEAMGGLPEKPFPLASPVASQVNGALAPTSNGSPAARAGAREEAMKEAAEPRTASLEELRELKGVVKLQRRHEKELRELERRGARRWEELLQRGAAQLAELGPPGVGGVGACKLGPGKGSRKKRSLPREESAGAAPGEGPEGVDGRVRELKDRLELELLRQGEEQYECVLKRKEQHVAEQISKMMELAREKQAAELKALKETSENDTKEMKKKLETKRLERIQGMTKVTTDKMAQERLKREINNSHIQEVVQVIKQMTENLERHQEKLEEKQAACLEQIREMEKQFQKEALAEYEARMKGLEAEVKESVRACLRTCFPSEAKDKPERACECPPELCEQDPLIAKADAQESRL

binding result [1] | fold change in affinity of PLC-β2 stimulation against the Gβ 86-105 peptide [2] [fold] | Binder
no binding | – | TTNKVHAIPLRSSWVNTCAY (also: DABMI maleimide label in FRET experiment, residue not given here, Synthetic peptide; also called m-TTN) [Gβ 86-105 M101N substituted peptide]
– | ~2 | TTNKVHAIPLRSAWVMTCAY (not fully specified) [Gβ 86-105 peptide with S98 substituted with alanine]
– | 5 | TTNKVHAIPLRRRWVMTCAY [S97,98R Gβ 86-105 peptide]
